# Test results: IntAct's records for PubMed 32439656
# B1: ER membrane protein complex subunit 2 (Homo sapiens), Q15006 (parent)
# chain: MAKVSELYDVTWEEMRDKMRKWREENSRNSEQIVEVGEELINEYASKLGDDIWIIYEQVMIAALDYGRDDLALFCLQELRRQFPGSHRVKRLTGMRFEAMERYDDAIQLYDRILQEDPTNTAARKRKIAIRKAQGKNVEAIRELNEYLEQFVGDQEAWHELAELYINEHDYAKAAFCLEELMMTNPHNHLYCQQYAEVKYTQGGLENLELSRKYFAQALKLNNRNMRALFGLYMSASHIASNPKASAKTKKDNMKYASWAASQINRAYQFAGRSKKETKYSLKAVEDMLETLQITQS
# partner: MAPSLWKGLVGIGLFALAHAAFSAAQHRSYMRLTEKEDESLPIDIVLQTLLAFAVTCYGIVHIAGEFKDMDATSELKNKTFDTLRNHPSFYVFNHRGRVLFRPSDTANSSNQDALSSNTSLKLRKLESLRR
# Variants of: B1
# Settings: with emc5_human MMGT1, Q8N4V1
row,Variant,effect of a mutation on the interaction
1,W259A,with no effect
2,Y200A,disrupting interaction strength
3,E160A,disrupting interaction strength
4,Y171A,with no effect
5,R227A,disrupting interaction strength
6,E180A,with no effect
